According to article PMC6251626, “Structural basis of tubulin recruitment and assembly by microtubule polymerases with tumor overexpressed gene (TOG) domain arrays” (eLife, 2018):

Assays:
[1] = target: the molecule itself; test: SEC-MALS; isolated proteins alone, 200 mM KCl
[2] = target: T1, αβ-tubulin heterodimer purified from porcine brains (porcine, UniProt P02550 1-451; P02554 1-445); test: SEC; quantitative SEC (Superdex 200 10/300) with SDS-PAGE densitometry of fractions; 2 αβ-tubulin per Alp14 subunit, with or without DRP; 200 mM KCl, 50 mM HEPES pH 7.0, 1 mM MgCl2, 1 mM β-mercaptoethanol; details: both partners purified
T1 construct: α-tubulin of porcine brain; β-tubulin of porcine brain; Brain tubulin is a mixture of isotypes; Chains also in PDB 6MZF, 6MZE, 6MZG; also called soluble porcine αβ-tubulin; source: purified from porcine brains (two GTP-polymerization cycles at high ionic strength); copies: 1 + 1

[3] = target: T1, αβ-tubulin heterodimer purified from …; test: SEC-MALS; Alp14 constructs mixed with soluble αβ-tubulin (with or without DRP), Superdex 200 Increase 10/300, 80-100 mM KCl; details: both partners purified
[4] = target: T1, αβ-tubulin heterodimer purified from …; test: SEC; quantitative SEC (Superdex 200 10/300) with SDS-PAGE densitometry of fractions; 2 αβ-tubulin per Alp14 subunit, with or without DRP; 100 mM KCl, 50 mM HEPES pH 7.0, 1 mM MgCl2, 1 mM β-mercaptoethanol; details: both partners purified

TOG1-TOG2:αβ-tubulin molar ratio [2] | stoichiometry N [3] | TOG1-TOG2:αβ-tubulin molar ratio [4] | Binder | stoichiometry N [1]
– | – | – | wt-Alp14-dimer (S. pombe Alp14 residues 1-690) (domain or fragment, UniProt O94534 1-690, looked up, Alp14 (Alp14p), S. pombe, residues 1-690 (TOG1-TOG2, SK-rich region, coiled coil); also called dimeric Alp14; source: E. coli BL21, purified (Ni-IDA and/or ion exchange, SEC)) MSQDQEEDYSKLPLESRIVHKVWKVRLSAYEECSKSFSLSADGSDNCFELWNNQSELWKSVLTDSNVAAQEAGTAAFVAYCRFSDPSHLLKAREISVLSISEKCLTSPRAGTRENALEALMLLVEADSAAPVIESIIPSLSARSPKVIASNVAAIASLVEQFGAKVIPSKMIIPHISNLFGHADKNVRKEASRLTVNIYRWTGDPLKDLLFKDLRPVQTKELESLFAELPTEPPKQTRFLKSQQPTSEPNVETQVEEQPALENEESEPEPSDDQFDLVEEVDVLPNVDPNLETLMASSKWKDRKEALDKLLPVLSQPKIKDNDFFNLVAILTKSVSKDANIMVVINAAHCIQAMAKGLRSNFSKYASTSINALLERSKEKKANVIESLSSAMDAVLATSSLDDLAELIASFAGNKNPQIKSSCFSLFSRSFSNMTSLPSKFTVDTCAKACVPGVSDTFEPVRSAAAEALGVLMKLVGERAINQYLSPLDDIRKSKIRSFYETATVKAKAPTKKSKVKPSKQEESKVVVPSNAKAVKKSVVPSSPVVPSPRKATNKSLSMDVSKGNAFENGPLLPRPTTRPVSRGLSRGTSSSLQQKVKASTPLNSGALNETVQNLKNMELDDPAPQPAKHSRVDRYEHPKVLEDNDSTISSLESLKRENEELREQLKVEHEENISMQKQLSELKGELNTL | 2
1.46 | ~4 | 1.86 | INT1+2 (Alp14-dimer with interfaces 1 and 2 inactivated) (domain or fragment) MSQDQEEDYSKLPLESRIVHKVWKVRLSAYEECSKSFSDAAAGSDNCFELWNNQSELWKSVLTDSNVAAQEAGTAAFVAYCRFSDPSHLLKAREISVLSISEKCLTSPRAGTRENALEALMLLVEADSAAPVIESIIPSLSARSPKVIASNVAAIASLVEQFGAKVIPSKMIIPHISNLFGHADKNVRKEASRLTVNIYRWTGDPAKDALFKDLRPVQTKELESLFAELPTEPPKQTRFLKSQQPTSEPNVETQVEEQPALENEESEPEPSDDQRAAAEEVDVLPNVDPNLETLMASSKWKDRKEALDKLLPVLSQPKILDNDFFNLVAILTKSVSKDANIMVVINAAHCIQAMAKGLASNFSKYASTSINALLERSKEKKANVIESLSSAMDAVLATSSLDDLAELIASFAGNKNPQIKSSCFSLFSRSFSNMTSDPAKFTVDTCAKACVPGVSDTFEPVRSAAAEALGVLMKLVGAAAINQYLSPLDDIRKSKIRSFYETATVKAKAPTKKSKVKPSKQEESKVVVPSNAKAVKKSVVPSSPVVPSPRKATNKSLSMDVSKGNAFENGPLLPRPTTRPVSRGLSRGTSSSLQQKVKASTPLNSGALNETVQNLKNMELDDPAPQPAKHSRVDRYEHPKVLEDNDSTISSLESLKRENEELREQLKVEHEENISMQKQLSELKGELNTL | –
